The results in this text go back to US20250084172A1 (23ANDME, published 2025).

The labels stand for the following.
B4: human soluble ULBP6 haplotype 02 (hULBP6_02) (ligand)
chain: RRDDPHSLCYDITVIPKFRPGPRWCAVQGQVDEKTFLHYDCGNKTVTPVSPLGKKLNVTTAWKAQNPVLREVVDILTEQLLDIQLENYTPKEPLTLQARMSCEQKAEGHSSGSWQFSIDGQTFLLFDSEKRMWTTVHPGARKMKEKWENDKDVAMSFHYISMGDCIGWLEDFLMGMDSTLEPSAGAPLAMSSG
notes: also called sULBP6_02
B5: human soluble ULBP6 haplotype 01 (hULBP6_01) (ligand)
chain: GRDDPHSLCYDITVIPKFRPGPRWCAVQGQVDEKTFLHYDCGNKTVTPVSPLGKKLNVTTAWKAQNPVLREVVDILTEQLRDIQLENYTPKEPLTLQARMSCEQKAEGHSSGSWQFSIDGQIFLLFDSEKRMWTTVHPGARKMKEKWENDKDVAMSFHYISMGDCIGWLEDFLMGMDSTLEPSAGAPLAMSSG
notes: also called sULBP6_01

Assay [1] deals with B4. The experiment in a line: blocking ELISA; hNKG2D coated, antibody titrated with biotinylated hULBP6_02; hNKG2D-hULBP6_02 interaction; value of the running text.
For assay [2], the target named is B4. The experiment in a line: blocking ELISA; hNKG2D coated, antibody titrated with biotinylated hULBP6_02. A general note: An ELISA detects its analyte on a solid surface through an enzyme-linked reagent.
For assay [3], the target named is B5. The assay can be described thus: blocking ELISA; hNKG2D coated, antibody titrated with biotinylated hULBP6_01; hNKG2D-hULBP6_01 interaction; value of the running text.
The target in assay [4] is B5. The experiment in a line: blocking ELISA; hNKG2D coated, antibody titrated with biotinylated hULBP6_01.
The target of assay [5] is T1, human soluble ULBP2 (hULBP2) (human, UniProt Q9BZM5 26-216).
T1 construct: also called sULBP2
T1 sequence: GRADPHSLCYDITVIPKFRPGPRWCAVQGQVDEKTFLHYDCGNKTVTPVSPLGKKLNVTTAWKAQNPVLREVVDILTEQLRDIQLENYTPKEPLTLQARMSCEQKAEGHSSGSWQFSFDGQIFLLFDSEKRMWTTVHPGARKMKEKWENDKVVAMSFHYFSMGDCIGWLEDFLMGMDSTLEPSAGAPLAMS
The assay can be described thus: SPR (BIACORE). (In SPR one partner is held on a chip, and binding of the other changes the refractive index at the surface.)

The target of assay [6] is T2, cynomolgus soluble ULBP2/6 (cULBP2/6) (cynomolgus, UniProt Q5VY80 28-217 (human entry), limits assumed).
T2 construct: also called cyno ULBP6; Cyno-cULBP2/6
T2 chain: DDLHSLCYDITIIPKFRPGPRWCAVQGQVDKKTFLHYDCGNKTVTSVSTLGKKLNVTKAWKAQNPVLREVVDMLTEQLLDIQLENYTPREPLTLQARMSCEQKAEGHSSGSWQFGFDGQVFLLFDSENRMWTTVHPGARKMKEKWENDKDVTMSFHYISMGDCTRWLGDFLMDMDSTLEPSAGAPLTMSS
The experiment in a line: SPR (BIACORE).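 Further: soluble human and cynomolgus NKG2D ligands injected as analytes in 3-fold dilution series spanning 0.01 to 50 nM at 37 °C, reference-subtracted sensorgrams fitted to a 1:1 Langmuir model.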

The target of assay [7] is T3, cynomolgus soluble ULBP5 (cULBP5) (cynomolgus).
T3 construct: also called Cyno-cULBP5
T3 chain: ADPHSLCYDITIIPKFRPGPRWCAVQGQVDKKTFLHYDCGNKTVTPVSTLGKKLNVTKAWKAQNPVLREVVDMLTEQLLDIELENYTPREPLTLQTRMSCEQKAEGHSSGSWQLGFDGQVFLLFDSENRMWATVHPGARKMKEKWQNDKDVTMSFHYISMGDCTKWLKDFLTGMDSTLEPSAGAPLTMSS
The assay can be described thus: SPR (BIACORE).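 Further: soluble human and cynomolgus NKG2D ligands injected as analytes in 3-fold dilution series spanning 0.01 to 50 nM at 37 °C, reference-subtracted sensorgrams fitted to a 1:1 Langmuir model.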

The target in assay [8] is B5. The experiment in a line: SPR (BIACORE).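 Further: soluble human and cynomolgus NKG2D ligands injected as analytes in 3-fold dilution series spanning 0.01 to 50 nM at 37 °C, reference-subtracted sensorgrams fitted to a 1:1 Langmuir model.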
In assay [9] the target is T4, human soluble ULBP5 (hULBP5) (human, UniProt Q6H3X3 26-218).
T4 construct: also called sULBP5
T4 sequence: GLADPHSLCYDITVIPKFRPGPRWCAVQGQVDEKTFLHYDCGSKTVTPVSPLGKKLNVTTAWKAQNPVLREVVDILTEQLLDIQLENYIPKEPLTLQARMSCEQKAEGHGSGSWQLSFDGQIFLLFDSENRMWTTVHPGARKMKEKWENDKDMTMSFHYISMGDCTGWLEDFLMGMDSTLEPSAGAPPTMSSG
The experiment in a line: SPR (BIACORE).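 Further: soluble human and cynomolgus NKG2D ligands injected as analytes in 3-fold dilution series spanning 0.01 to 50 nM at 37 °C, reference-subtracted sensorgrams fitted to a 1:1 Langmuir model.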

Assay [10] concerns the target B4. The experiment in a line: SPR (BIACORE).
Assay [11] addresses B4. The assay can be described thus: cell-based or functional assay.
The target in assay [12] is T2, cynomolgus soluble ULBP2/6 (cULBP2/6). The assay can be described thus: BLI (OCTET), mouse antibody captured from hybridoma supernatant on AMC biosensor, 300 nM cULBP2/6.
Assay [13] deals with hNKG2D-Fc (human NKG2D 78-216 with C-terminal long huFc-Flag tag) (human). The assay can be described thus: SPR (BIACORE 8K, 37 C); hNKG2D-Fc captured on Protein A, soluble ligand injected.
In assay [14] the target is T5, NKG2D on cells (NKG2D expressing cells, primed PBMCs) (UniProt P26718 1-216).
T5 construct: whole, on cells; also called cell surface NKG2D
T5 sequence (looked up): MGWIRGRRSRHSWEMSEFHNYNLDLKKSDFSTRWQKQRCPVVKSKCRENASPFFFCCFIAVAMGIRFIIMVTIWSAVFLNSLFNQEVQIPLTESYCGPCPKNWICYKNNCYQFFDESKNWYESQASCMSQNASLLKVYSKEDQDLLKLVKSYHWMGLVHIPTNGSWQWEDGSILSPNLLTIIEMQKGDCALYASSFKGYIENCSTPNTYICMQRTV
The assay can be described thus: competition with anti-NKG2D mAb on NKG2D expressing cells (data not shown).

Sequence of hNKG2D-Fc (human NKG2D 78-216 with C-terminal long huFc-Flag tag) (human) (chain, as listed by the source limits assumed): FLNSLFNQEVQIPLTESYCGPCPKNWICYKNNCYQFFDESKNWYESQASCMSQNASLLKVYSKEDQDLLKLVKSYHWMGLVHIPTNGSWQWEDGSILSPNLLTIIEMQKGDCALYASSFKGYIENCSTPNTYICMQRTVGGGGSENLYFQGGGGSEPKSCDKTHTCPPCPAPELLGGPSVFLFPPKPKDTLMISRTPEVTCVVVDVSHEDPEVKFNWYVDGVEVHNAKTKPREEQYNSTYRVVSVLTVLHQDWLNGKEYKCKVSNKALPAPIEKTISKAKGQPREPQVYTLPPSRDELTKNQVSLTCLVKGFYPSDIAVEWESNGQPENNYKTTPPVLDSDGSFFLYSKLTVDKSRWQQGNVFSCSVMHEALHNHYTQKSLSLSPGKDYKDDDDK

B1: Humanized 8E11 (h8E11) (E-) (antibody, human IgG1, kappa, N297G, V domains shown)
VH: EVQLVESGGGLVQPGGSLRLSCAASGFTFRTYGMHWVRQAPGKGLEWVAYISSGSGTIDYADTVKGRFTISRDNAKNSLYLQMNSLRAEDTAVYYCTRQTGAMDYWGQGTLVTVSS
VL: EIVLTQSPATLSLSPGERATLSCSASSSVSYMNWYQQKPGQSPRLWIYGISNLASGVPARFSGSGSGTDFTLTISSLEPEDFAVYYCQQRSSHPLTFGGGTKVEIKR
notes: hIgG1 with N297G (effector negative)
Consider B1, for which the IC50 (as a rule, the concentration that inhibits the measured activity by half) in assay [1] stood at 1.59 nM; in assay [2] it was 0.035 nM; in [3], 4.32 nM; in assay [4], 5.06 nM. Moreover, the Kd (usually the equilibrium constant for the complex coming apart) in assay [5] amounted to 0.5 nM; in [6], 2.06 nM; in assay [7], 23.1 nM; in assay [8] it was 0.27 nM; in [9], 1.76 nM; in assay [10], 0.28 nM. Further, the “EC50 (read off the curve); NKG2D MFI on primed PBMCs of donor 1307 with 50 nM sULBP6_02” value in assay [11] was around 20 nM.

B2: Humanized 7B3 (h7B3) (E-) (antibody, human IgG1, kappa, N297G, V domains shown)
VH: EVQLVESGGGLVQPGGSLRLSCAASGFTFSTYGFHWVRQAPGKGLEWVAYISSNSGTIDYADTVKGRFTISRDNAKNSLYLQMNSLRAEDTAVYYCARQGYGFDNWGQGTTVTVSS
VL: DIQLTQSPSSLSASVGDRVTITCSASSRVSYMNWYQQKPGKSPKIWVYGISNLASGVPSRFSGSGSGTDFTFTISSLQPEDIATYYCQQRSSHPLTFGGGTKVEIKR
notes: as for B1
In the case of B2, the IC50 was found to be 1.52 nM in [1], 0.028 nM in assay [2], 4.47 nM in assay [3] and 4.48 nM in assay [4]. The Kd stood at 0.54 nM in [5]; 0.48 nM in assay [6]; 7.67 nM in assay [7]; 0.22 nM in assay [8]; 2.39 nM in [9]; 0.2 nM in assay [10]. For the same molecule, the “EC50 (read off the curve); NKG2D MFI on primed PBMCs of donor 1307 with 50 nM sULBP6_02” value in assay [11] is around 20 nM.

B3: 8E11 (mouse hybridoma clone) (antibody, V domains shown)
VH: DVQLVESGGGLVQPGGSRKLSCAASGFTFRTYGMHWVRQAPEKGLEWVAYISSGSGTIDYADTVKGRFTISRDNAKNTLFLQMTSLRSEDTAMYYCTRQTGAMDYWGQGTSVTVSS
VL: EILLTQSPAIIAASPGEKVTITCSASSSVSYMNWYQQKPGSSPKLWIYGISNLASGVPARFSGSGSGTSFSFTINSMEAEDVATYYCQQRSSHPLTFGAGTKLELK
notes: Tested as hybridoma culture supernatant
In the case of B3, in assay [12], the binding result was “binds”.
In the case of B4, in assay [13], binding was characterised by a dissociation constant (Kd) of 4.8 nM. Moreover, in [14], the binding result is recorded as “binds”.
Consider B5, for which the Kd in assay [13] was found to be 41 nM. In addition, the binding result in [14] is listed as “binds”.

B6: 7B3 (mouse hybridoma clone) (antibody, V domains shown)
VH: DVQLVESGGGLVKPGGSRKLSCAASGFTFSTYGFHWVRQVPEKGLEWVAYISSNSGTIDYADTVKGRFTISRDNAKNTLFLQMTSLRSEDTAMYYCARQGYGFDNWGQGTTLTVSS
VL: EILLTQSPAIIAASPGEKVTITCSASSRVSYMNWYQQKPGSSPKIWVYGISNLASGVPARFSGSGSGTSFSFTINSMEAEDVATYYCQQRSSHPLTFGAGTKLELK
notes: Tested as hybridoma culture supernatant; also called mAb 7B3
As to B6, in assay [12], the binding result is “binds”.
